Measured values published in CN115232208A (SHANGHAI JUNSHI BIOSCIENCES CO LTD; JUNMENG BIOSCIENCES CO …, dated 2022).
Numbering of substitutions follows the chain as printed.

B1: H482L472 (antibody, human IgG1, kappa, V domains shown)
VH: EVQLVESGGGLVQPGGSLRLSCAASGFTFSDAWMDWVRQAPGKGLEWVGEIRNKANNHATYQAESVKGRFTISRDDSKNSVYLQMNSLKTEDTAVYYCTRAPFDLLVRRGYYIMDYWGQGTLVTVSS
VL: DIQMTQSPSSLSASVGDRVTITCRTSQDISIYLNWYQQKPGKAPKLLIYYTSRLRSGVPSRFSGSGSGTDFTLTISSLQPEDFATYFCQQGSTLPWTFGGGTKLEIKR
notes: also called UBP1213sc (its formulation); UBP1213
B2: H483L473 (antibody, human IgG1, kappa, V domains shown)
VH: B1 VH with Q13K, N79S, S80T
VL: B1 VL with L73F, F83I
B3: H484L474 (antibody, human IgG1, kappa, V domains shown)
VH: B1 VH with G49A, N79S, K89R, T90A
VL: B1 VL with L11V

target: 人可溶性BLyS (human soluble BLyS) (human, UniProt Q9Y275 134-285); assay: cell-based or functional assay
Sequence (Q9Y275 134-285 limits assumed): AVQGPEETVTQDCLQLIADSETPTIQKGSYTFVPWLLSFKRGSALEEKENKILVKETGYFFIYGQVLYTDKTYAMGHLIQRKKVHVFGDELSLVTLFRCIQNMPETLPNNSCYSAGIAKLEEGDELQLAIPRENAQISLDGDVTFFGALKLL

Binder	IC50 of inhibition of the NF-κB signal downstream of human BLyS binding TACI (luciferase reporter gene assay)
B1	0.0376 µg/mL
B2	0.0293 µg/mL
B3	0.0315 µg/mL

target: T1, 重组人BLyS蛋白 (recombinant human BLyS protein) (human, UniProt Q9Y275 134-285); assay: Blocking ELISA, human BLyS coated, competition with human BR3
T1 construct: Recombinant human BLyS coated on hydrophobic ELISA plates; also called B淋巴细胞刺激因子; BAFF
T1 sequence (Q9Y275 134-285 limits assumed): as above

Binder	IC50
B1	1.24 µg/mL
B2	0.858 µg/mL
B3	1.27 µg/mL
